{"source": "the nanobody polyreactivity screen of Harvey et al. (2022)", "assay": "yeast display, Sf9 membrane polyspecificity reagent, FACS + sequencing; frameworks hold sequencing errors", "outline": "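Polyreactivity labels are assigned by the sorting gate from which each nanobody was recovered. The gates were low and high (top ~1%), set on anti-HA fluorescence for expression and streptavidin fluorescence for reagent binding. Before sorting, galactose-induced (36–48 hours) yeast display cells were stained for 1 hour at 4 °C with 10% biotinylated, detergent-solubilized Sf9 membrane reagent.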", "data": [{"sequence": "QVQLVESGGGLVQAGGSLRLSCAASGSIFYQNAMGWYRQAPGKEREFVAAITWIGGSTYYADSVKGRFTISRDNAKNSVYLQMNILKPEDTAVYYCAADSVDNIYYGFDYWGQGTQVTVSS", "values": [{"measurement": "polyreactivity (PSR sort gate)", "result": "high polyreactivity"}]}, {"sequence": "QVQLVESGGGLVQAGGCLRLSCAASGSTFLRNTMGWYRLAPGKERELVATISAGASNTYYADSVKGRFTISRDNAKNTDYLQKNSLTPEATAVYYCAARLLTWYYGIRYYWGQGTQVTVSS", "values": [{"measurement": "polyreactivity (PSR sort gate)", "result": "high polyreactivity"}]}, {"sequence": "QVQLVESGGGLVQAGGSLRLSCAASGIIFGKYVMGWYRQAPGKEREFVAAISVRSGSTYYADSVKGRFTISRDNAKNTVYLQMNSLKPEDTALYYCAAREPVPRHLDYYYWGQGTQVSVSS", "values": [{"measurement": "polyreactivity (PSR sort gate)", "result": "high polyreactivity"}]}, {"sequence": "QVKLVESGGGIVKAGCSLRLSCGASGLTYNTYDMGWYRQAPGKERELVADISRGRGSTYYADSVKGRFTISRDNAKNTVYLQMHSLKPEDTAFYYCNAEKRSSYLMYDYWGQGTQVTVSS", "values": [{"measurement": "polyreactivity (PSR sort gate)", "result": "high polyreactivity"}]}, {"sequence": "QVQLVESGGGLVQAGGSLRLSCAASGFIFSWYAMGWYRQAPGKERELVAAINWSGDSTYYADSVKGRFTISRDNAKNTVYLQMNSLKPEDTAVYYCAADPSYWGDPYDYWGQGTQVTVSS", "values": [{"measurement": "polyreactivity (PSR sort gate)", "result": "high polyreactivity"}]}, {"sequence": "QVQLVESGGGLVQAGGSLRLSCAASGSIFVTNTMGWYRQAPGKERELVAAITYSGGSTYYADSVKGRFTISRDNAKNNVYLQMNSLKPEDTAVYYCAARRARYHVEYYYWGQGTQVTVSS", "values": [{"measurement": "polyreactivity (PSR sort gate)", "result": "high polyreactivity"}]}, {"sequence": "QVQLVETGGGLVKAGGSLRLSCAASGRTFGKYAMGWYRQETGKESELVAAITTRVVITYYADSVKGRFTISRDNAKNTVYLQMNSLKPEDTAVYYCAADPEKNYRPFNHYYYWGQGTQVTVSS", "values": [{"measurement": "polyreactivity (PSR sort gate)", "result": "low polyreactivity"}]}, {"sequence": "QVHLVESGGGLVKAGGSLRLSCAASGSTKYYVMGWYRQAPGKERELVAAISRGSSTYYADSVKGRFTISRDNAKNTVYLQMNSLKPEDTAVYYCAARGPWQAPYDYWGQGTQVTVSS", "values": [{"measurement": "polyreactivity (PSR sort gate)", "result": "high polyreactivity"}]}, {"sequence": "QVQLVESGGGLVQAGGSLRLSCAASGSIFLQYTMGWYRQAPGKERELVAAITESDGSTYYADSVKGRFTISRDNAKNTVYLQMNSLKPEDTAVYYCAADVVYFKYWDKYDYWGQGTQVTVSS", "values": [{"measurement": "polyreactivity (PSR sort gate)", "result": "low polyreactivity"}]}, {"sequence": "QVQLVESGGGLVQAGGSLRLSCAASGRIFGWYAMGWYRQAPGKERELVATIRKSGGRTYYADSVKGRFTLSRDNAKNTVYFQMNSLKQEDTAVYYCAAENTAAGQGLWGEDYWGQGTQVTVSS", "values": [{"measurement": "polyreactivity (PSR sort gate)", "result": "high polyreactivity"}]}, {"sequence": "QVQLVESGGGLVQAGGSLRLSCAASGITFYRYGMGWYRQAPGKARELVAAITYNGGGTYYADSVKGRFTISRDNAKNTVYLQMNSLKPEDTAVYYCNARYYRKYDYWGQGTQVTVSS", "values": [{"measurement": "polyreactivity (PSR sort gate)", "result": "high polyreactivity"}]}, {"sequence": "QVQLVESGGGLVQAGGSLRLSCAASGRTFQTNAMGWYRQAPGKERELVAAISWSGGRTYYADSVKGRFTISRDNAKNTVYLQMNSLKPEDTAVYYCAARQWYRYKVRFDYCGQGTQVTVSS", "values": [{"measurement": "polyreactivity (PSR sort gate)", "result": "high polyreactivity"}]}, {"sequence": "QVQLVESGGGLVQAGGSLRLSCAASGSIFGYYAMGWYRQAPGKEREFVAAISSRKDSTYADSVKGRFTISRDNAKNTVYLQMNSLKPEDTAVYYCAASTFRLTYAGHSYDYWGQGTQVTVSS", "values": [{"measurement": "polyreactivity (PSR sort gate)", "result": "high polyreactivity"}]}, {"sequence": "QVQLVESGGGLVQAGGSLRLSCAASGSTFITYAMGRYRQAPGKERELVAAIRWSGGGTYYADSVKGRFTISRDNAKNTVYLQMNSLKPEDTAVYYCAADHFNYTTGRDYWGQGTQVTVSS", "values": [{"measurement": "polyreactivity (PSR sort gate)", "result": "low polyreactivity"}]}, {"sequence": "QVQLVESGGGLVQAGGSLRLSCAASGSTIRLYAMGWYRQAPGKERELVAAISVSGGSTHYADSVKGRFTISRDNAKNTVYLQMNSLKPEDTAVYYCNAAGNPVSRYHYDYWGQGTQVTVSS", "values": [{"measurement": "polyreactivity (PSR sort gate)", "result": "high polyreactivity"}]}, {"sequence": "QVQLVESGGGLVQAGGSLRLSCAASGRTFNYYAMGWYRQAPGKERELVASIRYSTGSTYYADSVKGRFTISRDNAKNTVYLQMNSLKPEDTAVYYCAARRYARASRYDYWGQGTQVTVSS", "values": [{"measurement": "polyreactivity (PSR sort gate)", "result": "high polyreactivity"}]}, {"sequence": "QVQLVESGGGLVQAGGSLRLSCAASGSIFYGYDMGWYRQAPGKERELVAAISRSGGSTYYADSVKGRFTISRDNAKNTVYLQMNSLKPEDTAVSYCNAYPVTFVYYVGDGYWGQGTQVTVSS", "values": [{"measurement": "polyreactivity (PSR sort gate)", "result": "high polyreactivity"}]}]}
